Reference: patent US20150330993A1

Molecular target: purified human dimeric IgA (dIgA) (human)
Assay: ELISA, dIgA held on anti-IgA coated plates, detected with R/HpIgR, anti-secretory component and anti-mouse HRP

For “chimeric rabbit/human polymeric Ig receptor R/HpIgR (rabbit domain 1, human domains 2-5) (from UniProt P01833 1-638)”, the lowest dIgA concentration tested, still detected was 31 ng/mL.
